Measured values as given in IntAct's records for PubMed 27071417.

B1: Caspase recruitment domain-containing protein 14 (Homo sapiens), Q9BXL6-2 (parent)
chain: MGELCRRDSALTALDEETLWEMMESHRHRIVRCICPSRLTPYLRQAKVLCQLDEEEVLHSPRLTNSAMRAGHLLDLLKTRGKNGAIAFLESLKFHNPDVYTLVTGLQPDVDFSNFSGLMETSKLTECLAGAIGSLQEELNQEKGQKEVLLRRCQQLQEHLGLAETRAEGLHQLEADHSRMKREVSAHFHEVLRLKDEMLSLSLHYSNALQEKELAASRCRSLQEELYLLKQELQRANMVSSCELELQEQSLRTASDQESGDEELNRLKEENEKLRSLTFSLAEKDILEQSLDEARGSRQELVERIHSLRERAVAAERQREQYWEEKEQTLLQFQKSKMACQLYREKVNALQAQVCELQKERDQAYSARDSAQREISQSLVEKDSLRRQVFELTDQVCELRTQLRQLQAEPPGVLKQEARTREPCPREKQRLVRMHAICPRDDSDCSLVSSTESQLLSDLSATSSRELVDSFRSSSPAPPSQQSLYKRVAEDFGEEPWSFSSCLEIPEGDPGALPGAKAGDPHLDYELLDTADLPQLESSLQPVSPGRLDVSESGVLMRRRPARRILSQVTMLAFQGDALLEQISVIGGNLTGIFIHRVTPGSAADQMALRPGTQIVMVDYEASEPLFKAVLEDTTLEEAVGLLRRVDGFCCLSVKVNTDGYKRLLQDLEAKVATSGDSFYIRVNLAMEGRAKGELQVHCNEVLHVTDTMFQGCGCWHAHRVNSYTMKDTAAHGTIPNYSR
partner: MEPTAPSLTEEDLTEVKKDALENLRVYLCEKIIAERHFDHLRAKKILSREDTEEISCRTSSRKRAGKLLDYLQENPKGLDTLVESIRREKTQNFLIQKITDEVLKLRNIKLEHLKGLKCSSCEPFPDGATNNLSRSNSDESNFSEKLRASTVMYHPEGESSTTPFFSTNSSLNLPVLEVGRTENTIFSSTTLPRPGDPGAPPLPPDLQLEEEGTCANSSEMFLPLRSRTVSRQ
B2: Caspase recruitment domain-containing protein 14 (Homo sapiens), Q9BXL6-1 (parent)
chain: MGELCRRDSALTALDEETLWEMMESHRHRIVRCICPSRLTPYLRQAKVLCQLDEEEVLHSPRLTNSAMRAGHLLDLLKTRGKNGAIAFLESLKFHNPDVYTLVTGLQPDVDFSNFSGLMETSKLTECLAGAIGSLQEELNQEKGQKEVLLRRCQQLQEHLGLAETRAEGLHQLEADHSRMKREVSAHFHEVLRLKDEMLSLSLHYSNALQEKELAASRCRSLQEELYLLKQELQRANMVSSCELELQEQSLRTASDQESGDEELNRLKEENEKLRSLTFSLAEKDILEQSLDEARGSRQELVERIHSLRERAVAAERQREQYWEEKEQTLLQFQKSKMACQLYREKVNALQAQVCELQKERDQAYSARDSAQREISQSLVEKDSLRRQVFELTDQVCELRTQLRQLQAEPPGVLKQEARTREPCPREKQRLVRMHAICPRDDSDCSLVSSTESQLLSDLSATSSRELVDSFRSSSPAPPSQQSLYKRVAEDFGEEPWSFSSCLEIPEGDPGALPGAKAGDPHLDYELLDTADLPQLESSLQPVSPGRLDVSESGVLMRRRPARRILSQVTMLAFQGDALLEQISVIGGNLTGIFIHRVTPGSAADQMALRPGTQIVMVDYEASEPLFKAVLEDTTLEEAVGLLRRVDGFCCLSVKVNTDGYKRLLQDLEAKVATSGDSFYIRVNLAMEGRAKGELQVHCNEVLHVTDTMFQGCGCWHAHRVNSYTMKDTAAHGTIPNYSRAQQQLIALIQDMTQQCTVTRKPSSGGPQKLVRIVSMDKAKASPLRLSFDRGQLDPSRMEGSSTCFWAESCLTLVPYTLVRPHRPARPRPVLLVPRAVGKILSEKLCLLQGFKKCLAEYLSQEEYEAWSQRGDIIQEGEVSGGRCWVTRHAVESLMEKNTHALLDVQLDSVCTLHRMDIFPIVIHVSVNEKMAKKLKKGLQRLGTSEEQLLEAARQEEGDLDRAPCLYSSLAPDGWSDLDGLLSCVRQAIADEQKKVVWTEQSPR
partner: B1 partner

Experiments:
Details in all cases: with bcl10_human BCL10, O95999
[1] = variants of: B1
[2] = variants of: B1; remark: listed apart in the source
[3] = variants of: B2; remark: listed apart in the source
[4] = variants of: B2; remark: listed apart in the source

Row | Variant | effect of a mutation on the interaction [1] | effect of a mutation on the interaction [2] | effect of a mutation on the interaction [3] | effect of a mutation on the interaction [4]
1 | G117S | increasing interaction strength | with no effect |  | 
2 | E138A | increasing interaction strength | with no effect |  | 
3 | E138A |  |  | with no effect | increasing interaction strength
